Laboratory results published in paper PMC10397247.

Assays:
Experiment in all cases: two-hybrid library CCmax;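 further: natural log of median RNA to DNA barcode read ratio; higher means stronger binding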
4H428-AA = molecular target: T1, 4H428-AA; settings: mean of both orientations
T1 chain: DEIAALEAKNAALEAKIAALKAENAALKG

4H3066-AA = molecular target: T2, 4H3066-AA; settings: mean of both orientations
T2 chain: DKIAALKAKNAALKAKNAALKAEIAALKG

4H3591-AA = molecular target: T3, 4H3591-AA; settings: mean of both orientations
T3 chain: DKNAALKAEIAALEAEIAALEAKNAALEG

4H3920-AA = molecular target: T4, 4H3920-AA; settings: mean of both orientations
T4 chain: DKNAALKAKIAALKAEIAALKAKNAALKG

4H3029-AA = molecular target: T5, 4H3029-AA; settings: mean of both orientations
T5 chain: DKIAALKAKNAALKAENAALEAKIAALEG

4H3709-AA = molecular target: T6, 4H3709-AA; settings: mean of both orientations
T6 chain: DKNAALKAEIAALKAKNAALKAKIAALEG

4H391-AA = molecular target: T7, 4H391-AA
T7 chain: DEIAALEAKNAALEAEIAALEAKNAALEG

4H2948-AA = molecular target: T8, 4H2948-AA
T8 chain: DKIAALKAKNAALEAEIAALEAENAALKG

4H3939-AA = molecular target: T9, 4H3939-AA; settings: mean of both orientations
T9 chain: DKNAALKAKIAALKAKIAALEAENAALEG

4H3628-AA = molecular target: T10, 4H3628-AA; settings: mean of both orientations
T10 chain: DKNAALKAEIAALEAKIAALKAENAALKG

4H3102-AA = molecular target: T11, 4H3102-AA; settings: mean of both orientations
T11 chain: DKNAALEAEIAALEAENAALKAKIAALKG

4H656-AA = molecular target: T12, 4H656-AA; settings: mean of both orientations
T12 chain: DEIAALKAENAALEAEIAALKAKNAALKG

4H478-AA = molecular target: T13, 4H478-AA; settings: mean of both orientations
T13 chain: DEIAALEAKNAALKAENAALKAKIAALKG

4H497-AA = molecular target: T14, 4H497-AA; settings: mean of both orientations
T14 chain: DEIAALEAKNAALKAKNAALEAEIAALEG

4H3417-AA = molecular target: T15, 4H3417-AA; settings: mean of both orientations
T15 chain: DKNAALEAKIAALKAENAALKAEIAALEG

4H3121-AA = molecular target: T16, 4H3121-AA; settings: mean of both orientations
T16 chain: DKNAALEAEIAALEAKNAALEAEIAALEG

4H3666-AA = molecular target: T17, 4H3666-AA; settings: mean of both orientations
T17 chain: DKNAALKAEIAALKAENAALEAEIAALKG

4H3446-AA = molecular target: T18, 4H3446-AA; settings: mean of both orientations
T18 chain: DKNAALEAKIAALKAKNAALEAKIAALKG

4H675-AA = molecular target: T19, 4H675-AA; settings: mean of both orientations
T19 chain: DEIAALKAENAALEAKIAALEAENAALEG

4H971-AA = molecular target: T20, 4H971-AA; settings: mean of both orientations
T20 chain: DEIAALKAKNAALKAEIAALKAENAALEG

4H2991-AA = molecular target: T21, 4H2991-AA; settings: mean of both orientations
T21 chain: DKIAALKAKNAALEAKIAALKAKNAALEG

interaction score (4H428-AA): 1.95
interaction score (4H3066-AA): -1.57
interaction score (4H3591-AA): -1.3
interaction score (4H3920-AA): -1.35
interaction score (4H3029-AA): -1.4
interaction score (4H3709-AA): -1.17
interaction score (4H391-AA): -1.39
interaction score (4H2948-AA): -0.0114
interaction score (4H3939-AA): -1.77
interaction score (4H3628-AA): -0.855
interaction score (4H3102-AA): 0.56
interaction score (4H656-AA): 0.924
interaction score (4H478-AA): -1.62
interaction score (4H497-AA): -1.54
interaction score (4H3417-AA): 0.478
interaction score (4H3121-AA): -1.15
interaction score (4H3666-AA): -1.69
interaction score (4H3446-AA): -0.524
interaction score (4H675-AA): -0.414
interaction score (4H971-AA): -0.608
interaction score (4H2991-AA): -0.169
Binder: DKIAALKAKNAALEAEIAALEAENAALKG [4H2948-AA]
